Data: patent US20250320281A1

Assays:
Experiment in all cases: cell-based or functional assay
[1] = target: HIV-1 Env of isolate 93UG077 (subtype A) (HIV-1)
[2] = target: HIV-1 envelope glycoprotein (Env) of isolate MGRM-Chronic-B-001 (HIV-1)
[3] = target: HIV-1 envelope glycoprotein (Env) of isolate 92BR020 (HIV-1)
[4] = target: HIV-1 Env of isolate 94 KE 105 (subtype AC) (HIV-1)
[5] = target: HIV-1 Env of isolate 92WR021 (subtype A) (HIV-1)
[6] = target: HIV-1 envelope glycoprotein (Env) of isolate JR-FL (HIV-1)
[7] = target: HIV-1 MGRM-C-028 envelope glycoprotein (Env) on pseudovirus (HIV-1)
[8] = target: HIV-1 JRFL envelope glycoprotein (Env) on pseudovirus (HIV-1)
[9] = target: HIV-1 APV13 envelope glycoprotein (Env) on pseudovirus (HIV-1)
[10] = target: HIV-1 MGRM-D-018 envelope glycoprotein (Env) on pseudovirus (HIV-1)
[11] = target: HIV-1 Env of isolate 93IN905 (pseudovirus) (HIV-1)
[12] = target: HIV-1 Env of pseudovirus 92WR021 (subtype A) (HIV-1)
[13] = target: HIV-1 Env of pseudovirus 92RW008 (subtype A) (HIV-1)
[14] = target: HIV-1 Env of isolate MGRM-C-028 (clade C pseudovirus) (HIV-1)
[15] = target: HIV-1 Env of isolate MGRM-F1-004 (clade F), on pseudovirus (HIV-1)
[16] = target: HIV-1 Env of pseudovirus 92UG031 (subtype A) (HIV-1)
[17] = target: HIV-1 Env of isolate APV17 (HIV-1)
[18] = target: HIV-1 Env of isolate MGRM-F1-012 (clade F), on pseudovirus (HIV-1)
[19] = target: HIV-1 Env of pseudovirus 94UG103 (subtype A) (HIV-1)
[20] = target: HIV-1 Env of isolate MGRM-C-027 (clade C pseudovirus) (HIV-1)
[21] = target: HIV-1 Env of isolate MGRM-Chronic-B-002 (HIV-1)
[22] = target: HIV-1 Env of isolate MGRM-F1-010 (clade F), on pseudovirus (HIV-1)
[23] = target: HIV-1 Env of isolate MGRM-F1-013 (clade F), on pseudovirus (HIV-1)
[24] = target: HIV-1 Env of isolate MGRM-Chronic-B-008 (HIV-1)
[25] = target: HIV-1 Env of isolate APV6 (HIV-1)
[26] = target: HIV-1 Env of pseudovirus 92WR026 (subtype A) (HIV-1)
[27] = target: HIV-1 Env of isolate MGRM-C-024 (clade C pseudovirus) (HIV-1)
[28] = target: HIV-1 Env of isolate CAAN.A2 (HIV-1)
[29] = target: HIV-1 Env of isolate MG RM-D-011 (clade D), on pseudovirus (HIV-1)
[30] = target: HIV-1 Env of isolate MGRM-Chronic-B-017 (HIV-1)
[31] = target: HIV-1 Env of isolate MG RM-D-016 (clade D), on pseudovirus (HIV-1)
[32] = target: HIV-1 Env of isolate MG RM-D-026 (clade D), on pseudovirus (HIV-1)
[33] = target: HIV-1 Env of isolate MGRM-F1-016 (clade F), on pseudovirus (HIV-1)
[34] = target: HIV-1 Env of isolate MG RM-D-012 (clade D), on pseudovirus (HIV-1)
[35] = target: HIV-1 Env of isolate MG RM-D-002 (clade D), on pseudovirus (HIV-1)
[36] = target: HIV-1 Env of pseudovirus MGRM-A-005 (subtype A) (HIV-1)
[37] = target: HIV-1 Env of isolate MG RM-D-003 (clade D), on pseudovirus (HIV-1)
[38] = target: HIV-1 Env of pseudovirus 93WR029 (subtype A) (HIV-1)
[39] = target: HIV-1 Env of pseudovirus MGRM-F1-013 (HIV-1)

Sequence of 4993_K13 (PGT-141) (antibody) (VH): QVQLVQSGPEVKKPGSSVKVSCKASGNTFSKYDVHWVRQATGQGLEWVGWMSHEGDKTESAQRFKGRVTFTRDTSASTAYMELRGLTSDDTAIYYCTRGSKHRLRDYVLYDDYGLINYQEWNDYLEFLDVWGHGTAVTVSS
Sequence of 4993_K13 (PGT-141) (antibody) (VL): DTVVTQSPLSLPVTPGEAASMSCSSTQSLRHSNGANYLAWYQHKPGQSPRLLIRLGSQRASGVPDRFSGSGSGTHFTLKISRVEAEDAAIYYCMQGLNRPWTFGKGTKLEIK
Sequence of 4995_E20 (PGT-142) (antibody) (VH): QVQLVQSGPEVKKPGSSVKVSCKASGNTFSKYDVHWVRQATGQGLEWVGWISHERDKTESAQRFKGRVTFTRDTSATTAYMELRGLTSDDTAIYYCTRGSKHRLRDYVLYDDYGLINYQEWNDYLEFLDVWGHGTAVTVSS
Sequence of 5345_I01 (PGT-137) (antibody) (VH): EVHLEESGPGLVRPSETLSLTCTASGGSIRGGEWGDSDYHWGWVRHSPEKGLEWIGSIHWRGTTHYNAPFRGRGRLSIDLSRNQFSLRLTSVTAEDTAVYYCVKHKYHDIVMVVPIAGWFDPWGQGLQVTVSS
Sequence of 5345_I01 (PGT-137) (antibody) (VL): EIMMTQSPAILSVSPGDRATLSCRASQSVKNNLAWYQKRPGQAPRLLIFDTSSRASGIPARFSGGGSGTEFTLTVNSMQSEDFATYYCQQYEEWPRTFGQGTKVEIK
Sequence of 5329_C19 (PGT-136) (antibody) (VH): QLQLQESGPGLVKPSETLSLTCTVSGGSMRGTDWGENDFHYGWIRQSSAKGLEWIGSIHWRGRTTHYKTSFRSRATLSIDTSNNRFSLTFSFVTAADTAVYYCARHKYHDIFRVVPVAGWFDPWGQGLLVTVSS
Sequence of 5329_C19 (PGT-136) (antibody) (VL): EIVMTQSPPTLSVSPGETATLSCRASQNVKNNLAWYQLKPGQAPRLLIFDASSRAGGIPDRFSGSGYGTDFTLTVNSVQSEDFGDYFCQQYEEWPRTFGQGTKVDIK

4993_K13 (PGT-141) (antibody) showed an IC50 (µg/mL), pseudovirus neutralization [1] of over 50 µg/mL, an IC50 (µg/mL), pseudovirus neutralization [2] of over 50 µg/mL and an IC50 (µg/mL), pseudovirus neutralization [3] of 20.3 µg/mL. It also gave an IC50 (µg/mL), pseudovirus neutralization [4] of 0.204 µg/mL, an IC50 (µg/mL), pseudovirus neutralization [5] of over 50 µg/mL and an IC50 (µg/mL), pseudovirus neutralization [6] of over 50 µg/mL.

Work on 4995_E20 (PGT-142) (antibody) yielded an IC50 (µg/mL), pseudovirus neutralization [1] of over 50 µg/mL, an IC50 (µg/mL), pseudovirus neutralization [2] of over 50 µg/mL and an IC50 (µg/mL), pseudovirus neutralization [3] of 15.1 µg/mL. The IC50 (µg/mL), pseudovirus neutralization [4] was 0.19 µg/mL, the IC50 (µg/mL), pseudovirus neutralization [5] was over 50 µg/mL and the IC50 (µg/mL), pseudovirus neutralization [6] was over 50 µg/mL.

5141_B17 (PGT-126) (antibody) gave an IC50, pseudovirus neutralization [7] of 0.283 mg/L, an IC80 (pseudovirus neutralization) [7] of 2.62 mg/L and an IC90 (pseudovirus neutralization) [7] of over 10 mg/L. For the same substance, the IC95 (pseudovirus neutralization) [7] was over 10 mg/L, the IC50, pseudovirus neutralization [8] was 0.014 mg/L and the IC80 (pseudovirus neutralization) [8] was 0.0454 mg/L. For the same substance, the IC90 (pseudovirus neutralization) [8] was 0.09 mg/L, the IC95 (pseudovirus neutralization) [8] was 0.169 mg/L and the IC50, pseudovirus neutralization [9] was 0.012 mg/L. It also gave an IC80 (pseudovirus neutralization) [9] of 0.0411 mg/L, an IC90 (pseudovirus neutralization) [9] of 0.084 mg/L and an IC95 (pseudovirus neutralization) [9] of 0.162 mg/L. It also gave an IC50, pseudovirus neutralization [10] of 0.0093 mg/L, an IC80 (pseudovirus neutralization) [10] of 0.0391 mg/L and an IC90 (pseudovirus neutralization) [10] of 0.0918 mg/L. It also gave an IC95 (pseudovirus neutralization) [10] of 0.205 mg/L.

5329_C19 (PGT-136) (antibody) was tested, and the Primary Neutralization Index (B cell culture supernatant) [11] was 5.6.

In the case of 5343_B08 (PGT-135) (antibody), the Primary Neutralization Index (B cell culture supernatant) [11] is reported as 43.

5345_I01 (PGT-137) (antibody) showed a Primary Neutralization Index (B cell culture supernatant) [11] of 3.3.

PGV04 (antibody) was tested, and the IC50, pseudovirus neutralization [12] was 0.038 mg/L, the IC50, pseudovirus neutralization [13] was 0.014 mg/L and the IC50 (µg/mL), pseudovirus neutralization [14] was 0.149 µg/mL. It also gave an IC50 (µg/mL), pseudovirus neutralization [15] of 0.58 µg/mL, an IC50, pseudovirus neutralization [16] of 4.46 mg/L and an IC50 (µg/mL), pseudovirus neutralization [17] of 0.309 µg/mL. It also gave an IC50 (µg/mL), pseudovirus neutralization [18] of 0.25 µg/mL, an IC50, pseudovirus neutralization [19] of 0.202 mg/L and an IC50 (µg/mL), pseudovirus neutralization [20] of 2.76 µg/mL. For the same substance, the IC50 (µg/mL), pseudovirus neutralization [21] was 0.142 µg/mL, the IC50 (µg/mL), pseudovirus neutralization [22] was 0.184 µg/mL and the IC50 (µg/mL), pseudovirus neutralization [23] was 0.084 µg/mL. It also gave an IC50 (µg/mL), pseudovirus neutralization [24] of 0.166 µg/mL, an IC50 (µg/mL), pseudovirus neutralization [25] of 24.2 µg/mL and an IC50, pseudovirus neutralization [26] of 0.14 mg/L. For the same substance, the IC50 (µg/mL), pseudovirus neutralization [27] was over 50 µg/mL, the IC50 (µg/mL), pseudovirus neutralization [28] was 2.26 µg/mL and the IC50 (µg/mL), pseudovirus neutralization [29] was 0.025 µg/mL. It also gave an IC50 (µg/mL), pseudovirus neutralization [30] of 0.129 µg/mL, an IC50 (µg/mL), pseudovirus neutralization [31] of 0.201 µg/mL and an IC50 (µg/mL), pseudovirus neutralization [32] of 1.76 µg/mL. The IC50 (µg/mL), pseudovirus neutralization [33] was 0.268 µg/mL, the IC50 (µg/mL), pseudovirus neutralization [34] was 0.125 µg/mL and the IC50 (µg/mL), pseudovirus neutralization [35] was 0.322 µg/mL. For the same substance, the IC50, pseudovirus neutralization [36] was 0.134 mg/L, the IC50 (µg/mL), pseudovirus neutralization [37] was over 50 µg/mL and the IC50, pseudovirus neutralization [38] was 0.54 mg/L.

In the case of VRC01 (antibody), the IC50 (µg/mL), pseudovirus neutralization [1] is reported as 0.097 µg/mL, the IC50 (µg/mL), pseudovirus neutralization [2] is reported as 0.066 µg/mL and the IC50 (µg/mL), pseudovirus neutralization [3] is reported as 0.29 µg/mL. For the same substance, the IC50 (µg/mL), pseudovirus neutralization [4] was 0.499 µg/mL, the IC50 (µg/mL), pseudovirus neutralization [5] was 0.066 µg/mL and the IC50 (µg/mL), pseudovirus neutralization [6] was 0.034 µg/mL.

b12 (antibody) showed an IC50 (µg/ml), pseudovirus neutralization [39] of over 50 µg/mL.
